“And” between values parts separate entries of the source, which are not always exact repeats. Identical values can stand only once.
B3: mouse Robo1 ectodomain (domain or fragment, UniProt O89026 20-858, looked up)
chain: SRLRQEDFPPRIVEHPSDLIVSKGEPATLNCKAEGRPTPTIEWYKGGERVETDKDDPRSHRMLLPSGSLFFLRIVHGRKSRPDEGVYICVARNYLGEAVSHNASLEVAILRDDFRQNPSDVMVAVGEPAVMECQPPRGHPEPTISWKKDGSPLDDKDERITIRGGKLMITYTRKSDAGKYVCVGTNMVGERESEVAELTVLERPSFVKRPSNLAVTVDDSAEFKCEARGDPVPTVRWRKDDGELPKSRYEIRDDHTLKIRKVTAGDMGSYTCVAENMVGKAEASATLTVQEPPHFVVKPRDQVVALGRTVTFQCEATGNPQPAIFWRREGSQNLLFSYQPPQSSSRFSVSQTGDLTITNVQRSDVGYYICQTLNVAGSIITKAYLEVTDVIADRPPPVIRQGPVNQTVAVDGTLILSCVATGSPAPTILWRKDGVLVSTQDSRIKQLESGVLQIRYAKLGDTGRYTCTASTPSGEATWSAYIEVQEFGVPVQPPRPTDPNLIPSAPSKPEVTDVSKNTVTLSWQPNLNSGATPTSYIIEAFSHASGSSWQTAAENVKTETFAIKGLKPNAIYLFLVRAANAYGISDPSQISDPVKTQDVPPTSQGVDHKQVQRELGNVVLHLHNPTILSSSSVEVHWTVDQQSQYIQGYKILYRPSGASHGESEWLVFEVRTPTKNSVVIPDLRKGVNYEIKARPFFNEFQGADSEIKFAKTLEEAPSAPPRSVTVSKNDGNGTAILVTWQPPPEDTQNGMVQEYKVWCLGNETKYHINKTVDGSTFSVVIPSLVPGIRYSVEVAASTGAGPGVKSEPQFIQLDSHGNPVSPEDQVSLAQQISDVVRQP
notes: Robo1, mouse, ectodomain; Mostly dimeric, in equilibrium with monomer and higher oligomers; also called mRobo1 ectodomain; mRobo1; source: High Five cells (baculovirus), secreted, purified (Ni-NTA, SEC)

How the values were obtained:
[1] = target: the molecule itself; assay: SEC-MALS; Superose 6 Increase 10/300 in HBS (10 mM HEPES pH 7.2, 150 mM NaCl), Wyatt HELEOS II
mouse Robo1 FN1–3 = target: T1, mouse Robo1 FN1–3 (mouse, UniProt O89026 524-835, biotin on the N-terminal amine (NHS-Biotin at pH 6.5)); assay: SPR; mRobo1 FN1–3 biotinylated at the N-terminal amine (NHS-Biotin, pH 6.5), 315 RU captured on a Biacore SA chip; mNELL2 EGF1–6 as analyte; Langmuir isotherm; conditions: both partners purified
T1 construct: Robo1, mouse, FN domains 1-3; also called mRobo1 FN1–3; source: High Five cells (baculovirus), secreted, purified (Ni-NTA, SEC)
T1 sequence (looked up): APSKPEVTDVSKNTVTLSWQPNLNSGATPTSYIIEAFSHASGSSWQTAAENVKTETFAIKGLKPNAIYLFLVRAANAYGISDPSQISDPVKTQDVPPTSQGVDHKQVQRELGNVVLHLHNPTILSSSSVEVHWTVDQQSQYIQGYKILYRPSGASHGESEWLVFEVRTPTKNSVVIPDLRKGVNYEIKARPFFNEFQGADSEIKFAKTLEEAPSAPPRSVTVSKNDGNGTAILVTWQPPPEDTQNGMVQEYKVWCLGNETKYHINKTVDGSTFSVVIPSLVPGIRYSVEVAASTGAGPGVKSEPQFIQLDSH

[2] = target: the molecule itself; assay: AUC; sedimentation velocity, 20 °C, c(s) analysis in SEDFIT; single concentration 2.5 µM mRobo1 and 1.8 µM mRobo3 at 200,000 g, and concentration series (mRobo3 up to 20 µM)
[3] = target: T2, biotinylated human Robo3 FN1–3 (Avi-tagged) (human, UniProt Q96MS0 558-869, biotin on the Avi-tag (BirA)); assay: SPR; biotinylated hRobo3 FN1–3 captured on an NLC (neutravidin) chip, ProteOn XPR36; NELL EGF constructs as analyte; 25 °C, 10 mM HEPES pH 7.2, 150 mM NaCl, 0.05% Tween-20, 0.1% BSA; equilibrium responses, 1:1 Langmuir model; conditions: both partners purified
T2 construct: Robo3, human, FN domains 1-3; also called biotinylated hRobo3 FN1–3; hRobo3 FN1–3; source: High Five cells (baculovirus), secreted, purified (Ni-NTA, SEC), biotinylated with BirA
T2 sequence (looked up): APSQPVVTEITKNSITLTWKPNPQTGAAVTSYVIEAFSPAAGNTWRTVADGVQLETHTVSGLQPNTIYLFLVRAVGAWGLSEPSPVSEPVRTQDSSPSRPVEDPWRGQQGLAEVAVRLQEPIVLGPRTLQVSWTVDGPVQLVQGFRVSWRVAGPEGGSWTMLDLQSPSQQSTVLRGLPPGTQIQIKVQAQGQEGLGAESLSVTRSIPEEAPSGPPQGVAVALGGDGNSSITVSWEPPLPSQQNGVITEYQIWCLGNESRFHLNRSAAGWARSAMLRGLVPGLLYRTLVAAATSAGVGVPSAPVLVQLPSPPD

[4] = target: the molecule itself; assay: SEC-SAXS; Superose 6 Increase 10/300 in HBS at APS BioCAT beamline 18; molecular weight from the scattering
mouse Robo1 ectodomain = target: B3; assay: SPR; mRobo1 ectodomain on a CM5 chip by random amine coupling (~1,200 R.U.); mNELL2 as analyte; KD from equilibrium responses assuming 50 to 100% active surface; buffer as for the other SPR experiments, 25 °C; conditions: both partners purified
[5] = target: the molecule itself; assay: SEC-MALS; Wyatt HELEOS II coupled to an AKTA FPLC, Superose Increase 6 10/300, HBS; Zimm model

B1: mNELL1 (full length) (ligand, mouse, UniProt Q2VWQ2 25-809, looked up)
chain: DPDLQMDIITELDLVNTTLGVTQVAGLHNASKAFLFQDVQREIHSAPHVSEKLIQLFRNKSEFTFLATVQQKPSTSGVILSIRELEHSYFELESSGPREEIRYHYIHGGKPRTEALPYRMADGQWHKVALSVSASHLLLHVDCNRIYERVIDPPETNLPPGSNLWLGQRNQKHGFFKGIIQDGKIIFMPNGFITQCPNLNRTCPTCSDFLSLVQGIMDLQELLAKMTAKLNYAETRLGQLENCHCEKTCQVSGLLYRDQDSWVDGDNCRNCTCKSGAVECRRMSCPPLNCSPDSLPVHISGQCCKVCRPKCIYGGKVLAEGQRILTKTCRECRGGVLVKITEACPPLNCSEKDHILPENQCCRVCRGHNFCAEAPKCGENSECKNWNTKATCECKNGYISVQGNSAYCEDIDECAAKMHYCHANTVCVNLPGLYRCDCIPGYIRVDDFSCTEHDDCGSGQHNCDKNAICTNTVQGHSCTCQPGYVGNGTVCKAFCEEGCRYGGTCVAPNKCVCPSGFTGSHCEKDIDECAEGFVECHNHSRCVNLPGWYHCECRSGFHDDGTYSLSGESCIDIDECALRTHTCWNDSACINLAGGFDCLCPSGPSCSGDCPHEGGLKHNGQVWILREDRCSVCSCKDGKIFCRRTACDCQNPNVDLFCCPECDTRVTSQCLDQSGQKLYRSGDNWTHSCQQCRCLEGEADCWPLACPSLSCEYTAIFEGECCPRCVSDPCLADNIAYDIRKTCLDSSGISRLSGAVWTMAGSPCTTCQCKNGRVCCSVDLVCLEN
notes: mouse NELL1, D25-N809; trimer by MALS; also called NELL1FL (Polyhedrin, mouse); source: High Five cells (baculovirus), purified (Ni-NTA, SEC)
B1 was tested. Which “stoichiometry N” value [1] did it give?
Its value is 3.

B2: mouse NELL2 EGF1–6, wild type (domain or fragment)
chain: not shown
notes: NELL2, mouse, EGF domains 1-6; also called mNELL2 EGF1–6 WT; mNELL2 EGF1–6; source: High Five cells (baculovirus), secreted, purified (Ni-NTA, SEC)
With B2 as the binder, how does the Kd (mouse Robo1 FN1–3) read?
Its Kd is 14 µM.

With B3 as the binder, how does the “stoichiometry N” value [2] read?
Its value is 2.

B4: human NELL2 EGF domains 1-6 (domain or fragment)
chain: not shown
notes: NELL2, human, EGF domains 1-6; also called hNELL2 EGF1–6; NELL2 EGF1–6; source: High Five cells (baculovirus), secreted, purified (Ni-NTA, SEC)
For B4, which Kd [3] is on record?
The Kd was 0.6 µM.

B5: hNELL2 (full length) (ligand, human, UniProt Q99435 22-816, looked up)
chain: LGVDPSLQIDVLTELELGESTTGVRQVPGLHNGTKAFLFQDTPRSIKASTATAEQFFQKLRNKHEFTILVTLKQTHLNSGVILSIHHLDHRYLELESSGHRNEVRLHYRSGSHRPHTEVFPYILADDKWHKLSLAISASHLILHIDCNKIYERVVEKPSTDLPLGTTFWLGQRNNAHGYFKGIMQDVQLLVMPQGFIAQCPDLNRTCPTCNDFHGLVQKIMELQDILAKTSAKLSRAEQRMNRLDQCYCERTCTMKGTTYREFESWIDGCKNCTCLNGTIQCETLICPNPDCPLKSALAYVDGKCCKECKSICQFQGRTYFEGERNTVYSSSGVCVLYECKDQTMKLVESSGCPALDCPESHQITLSHSCCKVCKGYDFCSERHNCMENSICRNLNDRAVCSCRDGFRALREDNAYCEDIDECAEGRHYCRENTMCVNTPGSFMCICKTGYIRIDDYSCTEHDECITNQHNCDENALCFNTVGGHNCVCKPGYTGNGTTCKAFCKDGCRNGGACIAANVCACPQGFTGPSCETDIDECSDGFVQCDSRANCINLPGWYHCECRDGYHDNGMFSPSGESCEDIDECGTGRHSCANDTICFNLDGGYDCRCPHGKNCTGDCIHDGKVKHNGQIWVLENDRCSVCSCQNGFVMCRRMVCDCENPTVDLFCCPECDPRLSSQCLHQNGETLYNSGDTWVQNCQQCRCLQGEVDCWPLPCPDVECEFSILPENECCPRCVTDPCQADTIRNDITKTCLDEMNVVRFTGSSWIKHGTECTLCQCKNGHICCSVDPQCLQEL
notes: human NELL2, L22-L816; trimer by SAXS; also called NELL2FL (Polyhedrin, human); source: High Five cells (baculovirus), purified (Ni-NTA, SEC)
B5 was tested. Which “stoichiometry N” value [4] did it give?
The value was 3.

B6: full-length mouse NELL2 (ligand, UniProt Q61220 25-819, looked up)
chain: LGVDPSLQIDVLTELELGESTDGVRQVPGLHNGTKAFLFQESPRSIKASTATAERFFQKLRNKHEFTILVTLKQIHLNSGVILSIHHLDHRYLELESSGHRNEIRLHYRSGTHRPHTEVFPYILADAKWHKLSLAFSASHLILHIDCNKIYERVVEMPSTDLPLGTTFWLGQRNNAHGYFKGIMQDVHVLVMPQGFIAQCPDLNRTCPTCNDFHGLVQKIMELQDILSKTSAKLSRAEQRMNRLDQCYCERTCTVKGTTYRESESWTDGCKNCTCLNGTIQCETLVCPAPDCPPKSAPAYVDGKCCKECKSTCQFQGRSYFEGERNTVYSSSGMCVLYECKDQTMKLVENIGCPPLDCPESHQIALSHSCCKVCKGYDFCSEKHTCMENSVCRNLNDRAVCSCRDGFRALREDNAYCEDIDECAEGRHYCRENTMCVNTPGSFMCICKTGYIRIDDYSCTEHDECLTNQHNCDENALCFNTVGGHNCVCKPGYTGNGTTCKAFCKDGCRNGGACIAANVCACPQGFTGPSCETDIDECSEGFVQCDSRANCINLPGWYHCECRDGYHDNGMFAPGGESCEDIDECGTGRHSCTNDTICFNLDGGYDCRCPHGKNCTGDCVHEGKVKHTGQIWVLENDRCSVCSCQTGFVMCRRMVCDCENPTVDLSCCPECDPRLSSQCLHQNGETVYNSGDTWVQDCRQCRCLQGEVDCWPLACPEVECEFSVLPENECCPRCVTDPCQADTIRNDITKTCLDEMNVVRFTGSSWIKHGTECTLCQCKNGHLCCSVDPQCLQEL
modifications: biotin (NHS-Biotin) where captured on the SA chip for SPR
notes: NELL2, mouse; called full-length; the methods say that mature domains were cloned into pAcGP67A; Trimer by MALS; also called mNELL2; mNELL2 ectodomain; source: High Five cells (baculovirus), secreted, purified (Ni-NTA, SEC); not shown: His6, C-terminal, kept
How did the Kd (mouse Robo1 ectodomain) turn out when B6 was run?
Its Kd is ~350 µM and 190 to 400 µM.

What about the “stoichiometry N” value [5] of the same binder?
The value was 3.
